Measurements taken from ChEMBL document CHEMBL1212722, “Designer enzymes for glycosphingolipid synthesis by directed evolution” (Nat Chem Biol, 2009).

How the values were obtained:
[1] = substrate: CCCCCCCCCCCCCC[C@@H](O)[C@@H](O)[C@@H](N)CO; assay: Ratio of Kcat to Km of Activity of Rhodococcus sp. M777 Endoglycoceramidase 2 K129N mutant
[2] = substrate: CC(=O)N[C@H]1[C@H](O[C@@H]2[C@H](O[C@]3(C(=O)O)C[C@H](O)[C@@H](NC(C)=O)[C@H]([C@@H](O)[C@@H](O)CO)O3)[C@@H](O)[C@H](O[C@H]3[C@H](O)[C@@H](O)[C@@H](F)O[C@@H]3CO)O[C@@H]2CO)O[C@H](CO)[C@H](O)[C@@H]1O[C@@H]1O[C@H](CO)[C@H](O)[C@H](O)[C@H]1O; assay: (§1) Activity of Rhodococcus sp. M777 Endoglycoceramidase 2 I183F mutant
[3] = substrate: CCCCCCCCCCCCC/C=C/[C@@H](O)[C@@H](N)CO; assay: as §1
[4] = substrate: CC(=O)N[C@H]1[C@H](O[C@@H]2[C@H](O[C@]3(C(=O)O)C[C@H](O)[C@@H](NC(C)=O)[C@H]([C@@H](O)[C@@H](O)CO)O3)[C@@H](O)[C@H](O[C@H]3[C@H](O)[C@@H](O)[C@@H](F)O[C@@H]3CO)O[C@@H]2CO)O[C@H](CO)[C@H](O)[C@@H]1O[C@@H]1O[C@H](CO)[C@H](O)[C@H](O)[C@H]1O; assay: (§2) Ratio of Kcat to Km of Activity of Rhodococcus sp. M777 Endoglycoceramidase 2 I183F mutant
[5] = substrate: CCCCCCCCCCCCC/C=C/[C@@H](O)[C@@H](N)CO; assay: as §2
[6] = substrate: CC(=O)N[C@H]1[C@H](O[C@@H]2[C@H](O[C@]3(C(=O)O)C[C@H](O)[C@@H](NC(C)=O)[C@H]([C@@H](O)[C@@H](O)CO)O3)[C@@H](O)[C@H](O[C@H]3[C@H](O)[C@@H](O)[C@@H](F)O[C@@H]3CO)O[C@@H]2CO)O[C@H](CO)[C@H](O)[C@@H]1O[C@@H]1O[C@H](CO)[C@H](O)[C@H](O)[C@H]1O; assay: (§3) Activity of Rhodococcus sp. M777 Endoglycoceramidase 2 A153T mutant
[7] = substrate: CCCCCCCCCCCCC/C=C/[C@@H](O)[C@@H](N)CO; assay: as §3
[8] = substrate: CC(=O)N[C@H]1[C@H](O[C@@H]2[C@H](O[C@]3(C(=O)O)C[C@H](O)[C@@H](NC(C)=O)[C@H]([C@@H](O)[C@@H](O)CO)O3)[C@@H](O)[C@H](O[C@H]3[C@H](O)[C@@H](O)[C@@H](F)O[C@@H]3CO)O[C@@H]2CO)O[C@H](CO)[C@H](O)[C@@H]1O[C@@H]1O[C@H](CO)[C@H](O)[C@H](O)[C@H]1O; assay: (§4) Ratio of Kcat to Km of Activity of Rhodococcus sp. M777 Endoglycoceramidase 2 A153T mutant
[9] = substrate: CCCCCCCCCCCCC/C=C/[C@@H](O)[C@@H](N)CO; assay: as §4
[10] = substrate: CC(=O)N[C@H]1[C@H](O[C@@H]2[C@H](O[C@]3(C(=O)O)C[C@H](O)[C@@H](NC(C)=O)[C@H]([C@@H](O)[C@@H](O)CO)O3)[C@@H](O)[C@H](O[C@H]3[C@H](O)[C@@H](O)[C@@H](F)O[C@@H]3CO)O[C@@H]2CO)O[C@H](CO)[C@H](O)[C@@H]1O[C@@H]1O[C@H](CO)[C@H](O)[C@H](O)[C@H]1O; assay: (§5) Activity of Rhodococcus sp. M777 Endoglycoceramidase 2 A81E mutant
[11] = substrate: CCCCCCCCCCCCC/C=C/[C@@H](O)[C@@H](N)CO; assay: as §5
[12] = substrate: CC(=O)N[C@H]1[C@H](O[C@@H]2[C@H](O[C@]3(C(=O)O)C[C@H](O)[C@@H](NC(C)=O)[C@H]([C@@H](O)[C@@H](O)CO)O3)[C@@H](O)[C@H](O[C@H]3[C@H](O)[C@@H](O)[C@@H](F)O[C@@H]3CO)O[C@@H]2CO)O[C@H](CO)[C@H](O)[C@@H]1O[C@@H]1O[C@H](CO)[C@H](O)[C@H](O)[C@H]1O; assay: (§6) Ratio of Kcat to Km of Activity of Rhodococcus sp. M777 Endoglycoceramidase 2 A81E mutant
[13] = substrate: CCCCCCCCCCCCC/C=C/[C@@H](O)[C@@H](N)CO; assay: as §6
[14] = substrate: CC(=O)N[C@H]1[C@H](O[C@@H]2[C@H](O[C@]3(C(=O)O)C[C@H](O)[C@@H](NC(C)=O)[C@H]([C@@H](O)[C@@H](O)CO)O3)[C@@H](O)[C@H](O[C@H]3[C@H](O)[C@@H](O)[C@@H](F)O[C@@H]3CO)O[C@@H]2CO)O[C@H](CO)[C@H](O)[C@@H]1O[C@@H]1O[C@H](CO)[C@H](O)[C@H](O)[C@H]1O; assay: (§7) Activity of Rhodococcus sp. M777 Endoglycoceramidase 2 I276F mutant
[15] = substrate: CCCCCCCCCCCCC/C=C/[C@@H](O)[C@@H](N)CO; assay: as §7
[16] = substrate: CC(=O)N[C@H]1[C@H](O[C@@H]2[C@H](O[C@]3(C(=O)O)C[C@H](O)[C@@H](NC(C)=O)[C@H]([C@@H](O)[C@@H](O)CO)O3)[C@@H](O)[C@H](O[C@H]3[C@H](O)[C@@H](O)[C@@H](F)O[C@@H]3CO)O[C@@H]2CO)O[C@H](CO)[C@H](O)[C@@H]1O[C@@H]1O[C@H](CO)[C@H](O)[C@H](O)[C@H]1O; assay: (§8) Ratio of Kcat to Km of Activity of Rhodococcus sp. M777 Endoglycoceramidase 2 I276F mutant
[17] = substrate: CCCCCCCCCCCCC/C=C/[C@@H](O)[C@@H](N)CO; assay: as §8

B1: Endoglycoceramidase II (Rhodococcus sp), A0ACD6B832 K129N (protein)
chain: MRRTRLVSLIVTGSLVFGGGVAAAQSSLAASGSGSGSGTALTPSYLKDDDGRSLILRGFNTASSAKSAPDGMPQFTEADLAREYADMGTNFVRFLISWRSVEPAPGVYDQQYLDRVEDRVGWYAERGYNVMLDMHQDVYSGAITPEGNSGNGAGAIGNGAPAWATYMDGLPVEPQPRWELYYIQPGVMRAFDNFWNTTGKHPELVEHYAKAWRAVADRFADNDAVVAYDLMNEPFGGSLQGPAFEAGPLAAMYQRTTDAIRQVDQDTWVCVAPQAIGVNQGLPSGLTKIDDPRAGQQRIAYCPHLYPLPLDIGDGHEGLARTLTDVTIDAWRANTAHTARVLGDVPIILGEFGLDTTLPGARDYIERVYGTAREMGAGVSYWSSDPGPWGPYLPDGTQTLLVDTLNKPYPRAVAGTPTEWSSTSDRLQLTIEPDAAITAPTEIYLPEAGFPGDVHVEGADVVGWDRQSRLLTVRTPADSGNVTVTVTPAA
- kcat/Km [1]: 3.1 M⁻¹ s⁻¹

B2: Endoglycoceramidase II (Rhodococcus sp), A0ACD6B832 I183F (protein)
chain: MRRTRLVSLIVTGSLVFGGGVAAAQSSLAASGSGSGSGTALTPSYLKDDDGRSLILRGFNTASSAKSAPDGMPQFTEADLAREYADMGTNFVRFLISWRSVEPAPGVYDQQYLDRVEDRVGWYAERGYKVMLDMHQDVYSGAITPEGNSGNGAGAIGNGAPAWATYMDGLPVEPQPRWELYYFQPGVMRAFDNFWNTTGKHPELVEHYAKAWRAVADRFADNDAVVAYDLMNEPFGGSLQGPAFEAGPLAAMYQRTTDAIRQVDQDTWVCVAPQAIGVNQGLPSGLTKIDDPRAGQQRIAYCPHLYPLPLDIGDGHEGLARTLTDVTIDAWRANTAHTARVLGDVPIILGEFGLDTTLPGARDYIERVYGTAREMGAGVSYWSSDPGPWGPYLPDGTQTLLVDTLNKPYPRAVAGTPTEWSSTSDRLQLTIEPDAAITAPTEIYLPEAGFPGDVHVEGADVVGWDRQSRLLTVRTPADSGNVTVTVTPAA
- Km [2]: 180 µM
- kcat [2]: 0.02 s⁻¹
- Km [3]: 180 µM
- kcat [3]: 0.09 s⁻¹
- kcat/Km [4]: 135 M⁻¹ s⁻¹
- kcat/Km [5]: 527 M⁻¹ s⁻¹

B3: Endoglycoceramidase II (Rhodococcus sp), A0ACD6B832 A153T (protein)
chain: MRRTRLVSLIVTGSLVFGGGVAAAQSSLAASGSGSGSGTALTPSYLKDDDGRSLILRGFNTASSAKSAPDGMPQFTEADLAREYADMGTNFVRFLISWRSVEPAPGVYDQQYLDRVEDRVGWYAERGYKVMLDMHQDVYSGAITPEGNSGNGTGAIGNGAPAWATYMDGLPVEPQPRWELYYIQPGVMRAFDNFWNTTGKHPELVEHYAKAWRAVADRFADNDAVVAYDLMNEPFGGSLQGPAFEAGPLAAMYQRTTDAIRQVDQDTWVCVAPQAIGVNQGLPSGLTKIDDPRAGQQRIAYCPHLYPLPLDIGDGHEGLARTLTDVTIDAWRANTAHTARVLGDVPIILGEFGLDTTLPGARDYIERVYGTAREMGAGVSYWSSDPGPWGPYLPDGTQTLLVDTLNKPYPRAVAGTPTEWSSTSDRLQLTIEPDAAITAPTEIYLPEAGFPGDVHVEGADVVGWDRQSRLLTVRTPADSGNVTVTVTPAA
- Km [6]: 420 µM
- kcat [6]: 0.17 s⁻¹
- Km [7]: 460 µM
- kcat [7]: 0.2 s⁻¹
- kcat/Km [8]: 405 M⁻¹ s⁻¹
- kcat/Km [9]: 435 M⁻¹ s⁻¹

B4: Endoglycoceramidase II (Rhodococcus sp), A0ACD6B832 A81E (protein)
chain: MRRTRLVSLIVTGSLVFGGGVAAAQSSLAASGSGSGSGTALTPSYLKDDDGRSLILRGFNTASSAKSAPDGMPQFTEADLEREYADMGTNFVRFLISWRSVEPAPGVYDQQYLDRVEDRVGWYAERGYKVMLDMHQDVYSGAITPEGNSGNGAGAIGNGAPAWATYMDGLPVEPQPRWELYYIQPGVMRAFDNFWNTTGKHPELVEHYAKAWRAVADRFADNDAVVAYDLMNEPFGGSLQGPAFEAGPLAAMYQRTTDAIRQVDQDTWVCVAPQAIGVNQGLPSGLTKIDDPRAGQQRIAYCPHLYPLPLDIGDGHEGLARTLTDVTIDAWRANTAHTARVLGDVPIILGEFGLDTTLPGARDYIERVYGTAREMGAGVSYWSSDPGPWGPYLPDGTQTLLVDTLNKPYPRAVAGTPTEWSSTSDRLQLTIEPDAAITAPTEIYLPEAGFPGDVHVEGADVVGWDRQSRLLTVRTPADSGNVTVTVTPAA
- Km [10]: 970 µM
- kcat [10]: 0.12 s⁻¹
- Km [11]: 200 µM
- kcat [11]: 0.12 s⁻¹
- kcat/Km [12]: 123 M⁻¹ s⁻¹
- kcat/Km [13]: 600 M⁻¹ s⁻¹

B5: Endoglycoceramidase II (Rhodococcus sp), A0ACD6B832 I276F (protein)
chain: MRRTRLVSLIVTGSLVFGGGVAAAQSSLAASGSGSGSGTALTPSYLKDDDGRSLILRGFNTASSAKSAPDGMPQFTEADLAREYADMGTNFVRFLISWRSVEPAPGVYDQQYLDRVEDRVGWYAERGYKVMLDMHQDVYSGAITPEGNSGNGAGAIGNGAPAWATYMDGLPVEPQPRWELYYIQPGVMRAFDNFWNTTGKHPELVEHYAKAWRAVADRFADNDAVVAYDLMNEPFGGSLQGPAFEAGPLAAMYQRTTDAIRQVDQDTWVCVAPQAFGVNQGLPSGLTKIDDPRAGQQRIAYCPHLYPLPLDIGDGHEGLARTLTDVTIDAWRANTAHTARVLGDVPIILGEFGLDTTLPGARDYIERVYGTAREMGAGVSYWSSDPGPWGPYLPDGTQTLLVDTLNKPYPRAVAGTPTEWSSTSDRLQLTIEPDAAITAPTEIYLPEAGFPGDVHVEGADVVGWDRQSRLLTVRTPADSGNVTVTVTPAA
- Km [14]: 1300 µM
- kcat [14]: 0.11 s⁻¹
- Km [15]: 130 µM
- kcat [15]: 0.11 s⁻¹
- kcat/Km [16]: 86 M⁻¹ s⁻¹
- kcat/Km [17]: 846 M⁻¹ s⁻¹
